Source: patent US20140011735A1, “ANTIVIRAL COMPOSITION” (AMRITA THERAPEUTICS LIMITED, priority 2011, published 2014)

Tests used:
HIV-1 NL4-3 = assay: Inhibition of HIV-1 NL4-3 replication in peripheral blood lymphocytes (p24 antigen ELISA); format: cell-based; conditions: FIG. 2, similar to Enfuvirtide (T20)
[1] = tested on: HIV-1 Env SF162 mediated fusion of HeLa effector cells with HEK293-CCR5 target cells expressing human CD4; format: cell-based; conditions: β-Gal activity at 570 nm after 2.5 h at 37° C.; FIG. 4
[2] = tested on: HIV-1 virus, three clades (European, Indian and African origin); conditions: three clades of HIV-1; due to interference in entry of HIV-1 to host cells; cited from earlier work

B1: MPT63 (protein, UniProt P9WIP1 30-159, looked up)
Immunogenic protein MPT63: AYPITGKLGSELTMTDTVGQVVLGWKVSDLKSSTAVIPGYPVAGQVWEATATVNAIRGSVTPAVSQFNARTADGINYRVLWQAAGPDTISGATIPQGEQSTGKIYFDVTGPSPTIVAMNNGMEDLLIWEP
EC50 (HIV-1 NL4-3): 0.01 nM
inhibition of cell to cell fusion compared to positive control Enfuvirtide (T20) [1]: more inhibition of cell to cell fusion

B2: azurin: 128 amino acid P. aeruginosa protein with anticancer, anti-HIV-1 and antiparasitic activity (protein, UniProt P00282 21-148, looked up)
Azurin: AECSVDIQGNDQMQFNTNAITVDKSCKQFTVNLSHPGNLPKNVMGHNWVLSTAADMQGVVTDGMASGLDKDYLKPDDSRVIAHTKLIGSGEKDSVTFDVSKLKEGEQYMFFCTFPGHSALMKGTLTLK
growth inhibition of HIV-1 [2]: ≥ 90%
